The text below walks through data of patent US20060159695A1.

Assay [1] addresses RSV F protein (A2 strain) G438A (human RSV, A2 strain) (UniProt P03420). Nature of the assay: cell ELISA, 293T cells expressing F.
In assay [2] the target is RSV F protein (A2 strain) T434S (human RSV, A2 strain) (UniProt P03420). Nature of the assay: cell ELISA, 293T cells expressing F.
Assay [3] addresses RSV F protein (A2 strain) K272N (human RSV, A2 strain) (UniProt P03420). Nature of the assay: cell ELISA, 293T cells expressing F. (In an ELISA, binding on a coated surface is turned into a signal by an enzyme label.)
Assay [4] concerns the target Wild-type RSV F protein (subgroup B, 18537 strain) (human RSV, 18537 strain) (UniProt P13843). Nature of the assay: cell ELISA, 293T cells expressing F.
In assay [5] the target is RSV F protein (A2 strain) K433S (human RSV, A2 strain) (UniProt P03420). Nature of the assay: cell ELISA, 293T cells expressing F.
Assay [6] deals with Wild-type RSV F protein (subgroup A, A2 strain) (human RSV, A2 strain) (UniProt P03420). Nature of the assay: cell ELISA, 293T cells expressing F.
Assay [7] addresses RSV F protein (A2 strain) S436T (human RSV, A2 strain) (UniProt P03420). Nature of the assay: cell ELISA, 293T cells expressing F.
The target of assay [8] is RSV F protein (A2 strain) S436F (human RSV, A2 strain) (UniProt P03420). Nature of the assay: cell ELISA, 293T cells expressing F.
Assay [9] deals with RSV F protein (A2 strain) D486N (human RSV, A2 strain) (UniProt P03420). Nature of the assay: cell ELISA, 293T cells expressing F.
For assay [10], the target named is RSV F protein (A2 strain) F483Y (human RSV, A2 strain) (UniProt P03420). Nature of the assay: cell ELISA, 293T cells expressing F.
In assay [11] the target is RSV F protein (A2 strain) N437D (human RSV, A2 strain) (UniProt P03420). Nature of the assay: cell ELISA, 293T cells expressing F.
Assay [12] addresses RSV F protein (A2 strain) K272T (human RSV, A2 strain) (UniProt P03420). Nature of the assay: cell ELISA, 293T cells expressing F.
Assay [13] has as its target RSV F protein (A2 strain) K427Q (human RSV, A2 strain) (UniProt P03420). Nature of the assay: cell ELISA, 293T cells expressing F.
Assay [14] addresses RSV F protein (A2 strain) I431L (human RSV, A2 strain) (UniProt P03420). Nature of the assay: cell ELISA, 293T cells expressing F.
In assay [15] the target is RSV F protein (A2 strain) T400A (human RSV, A2 strain) (UniProt P03420). Nature of the assay: cell ELISA, 293T cells expressing F.
Assay [16] concerns the target RSV F protein (A2 strain) R429K (human RSV, A2 strain) (UniProt P03420). Nature of the assay: cell ELISA, 293T cells expressing F.
In assay [17] the target is RSV F protein (A2 strain) F435Y (human RSV, A2 strain) (UniProt P03420). Nature of the assay: cell ELISA, 293T cells expressing F.
The target of assay [18] is RSV F protein (A2 strain) K272Q (human RSV, A2 strain) (UniProt P03420). Nature of the assay: cell ELISA, 293T cells expressing F.
The target of assay [19] is RSV F protein (A2 strain) N428D (human RSV, A2 strain) (UniProt P03420). Nature of the assay: cell ELISA, 293T cells expressing F.
For assay [20], the target named is RSV F protein (A2 strain) K433T (human RSV, A2 strain) (UniProt P03420). Nature of the assay: cell ELISA, 293T cells expressing F.
Assay [21] deals with RSV F protein (A2 strain) F488L (human RSV, A2 strain) (UniProt P03420). Nature of the assay: cell ELISA, 293T cells expressing F.
For assay [22], the target named is RSV F protein (A2 strain) G430A (human RSV, A2 strain) (UniProt P03420). Nature of the assay: cell ELISA, 293T cells expressing F.
In assay [23] the target is RSV F protein (A2 strain) K427D (human RSV, A2 strain) (UniProt P03420). Nature of the assay: cell ELISA, 293T cells expressing F.
The target of assay [24] is RSV F protein (A2 strain) K433N (human RSV, A2 strain) (UniProt P03420). Nature of the assay: cell ELISA, 293T cells expressing F.
The target in assay [25] is RSV F protein (A2 strain) F488Y (human RSV, A2 strain) (UniProt P03420). Nature of the assay: cell ELISA, 293T cells expressing F.
The target in assay [26] is RSV F protein (A2 strain) R429S (human RSV, A2 strain) (UniProt P03420). Nature of the assay: cell ELISA, 293T cells expressing F.
In assay [27] the target is RSV F protein (A2 strain) K272M (human RSV, A2 strain) (UniProt P03420). Nature of the assay: cell ELISA, 293T cells expressing F.
The target in assay [28] is RSV F protein (A2 strain) C422S (human RSV, A2 strain) (UniProt P03420). Nature of the assay: cell ELISA, 293T cells expressing F.
The target of assay [29] is RSV F protein (A2 strain) I432L (human RSV, A2 strain) (UniProt P03420). Nature of the assay: cell ELISA, 293T cells expressing F.
For assay [30], the target named is RSV F protein (A2 strain) I432Q (human RSV, A2 strain) (UniProt P03420). Nature of the assay: cell ELISA, 293T cells expressing F.
Assay [31] deals with RSV F protein (A2 strain) K433Q (human RSV, A2 strain) (UniProt P03420). Nature of the assay: cell ELISA, 293T cells expressing F.
For assay [32], the target named is RSV F protein (A2 strain) F483L (human RSV, A2 strain) (UniProt P03420). Nature of the assay: cell ELISA, 293T cells expressing F.
The target in assay [33] is RSV F protein (A2 strain) K433R (human RSV, A2 strain) (UniProt P03420). Nature of the assay: cell ELISA, 293T cells expressing F.
Assay [34] deals with RSV F protein (A2 strain) I431A (human RSV, A2 strain) (UniProt P03420). Nature of the assay: cell ELISA, 293T cells expressing F.
The target of assay [35] is RSV F protein (A2 strain) K433D (human RSV, A2 strain) (UniProt P03420). Nature of the assay: cell ELISA, 293T cells expressing F.
The target of assay [36] is RSV F protein (A2 strain) N428Q (human RSV, A2 strain) (UniProt P03420). Nature of the assay: cell ELISA, 293T cells expressing F.
The target of assay [37] is RSV F protein (A2 strain) I432T (human RSV, A2 strain) (UniProt P03420). Nature of the assay: cell ELISA, 293T cells expressing F.
Assay [38] concerns the target RSV F protein (A2 strain) K427E (human RSV, A2 strain) (UniProt P03420). Nature of the assay: cell ELISA, 293T cells expressing F.
For assay [39], the target named is RSV F protein (A2 strain) K433L (human RSV, A2 strain) (UniProt P03420). Nature of the assay: cell ELISA, 293T cells expressing F.
Assay [40] concerns the target RSV F protein (A2 strain) V447A (human RSV, A2 strain) (UniProt P03420). Nature of the assay: cell ELISA, 293T cells expressing F.
In assay [41] the target is RSV F protein (A2 strain) S275F (human RSV, A2 strain) (UniProt P03420). Nature of the assay: cell ELISA, 293T cells expressing F.
Assay [42] deals with soluble, extracellular domain of recombinantly expressed RSV F protein (human RSV). Nature of the assay: SPR (BIAcore 3000), F protein amine-coupled to CM5 chip. For orientation: In SPR one partner is held on a chip, and binding of the other changes the refractive index at the surface.
Assay [43] concerns the target RSV F protein on human RSV virus (Long strain) (human RSV, Long strain) (UniProt P12568). Nature of the assay: cell-based or functional assay.

Regarding chimeric 101F mAb (antibody), the % mAb binding relative to wild-type in [1] worked out at 9.2%.

Regarding mAb19 (antibody), the % mAb binding relative to wild-type in assay [2] was determined as 84.9%; in assay [3], 62.3%; in [4], 105%; in [5], 112%; in assay [6] it was 99.9%; in assay [7], 85.8%. Further, the % mAb binding relative to wild-type in [8] is 163%; in [9], 30.7%; in [10], 141%; in [11] it was 33.2%; in assay [1], 19%; in assay [12] it was 68%. For the same substance, the % mAb binding relative to wild-type in assay [13] was 155%; in assay [14], 65.5%; in assay [15], 161%; in assay [16] it was 11.2%; in [17], 9.2%; in [18], 88.7%. Further, the % mAb binding relative to wild-type in assay [19] was 121%; in assay [20] it was 64.4%; in assay [21], 40%; in assay [22], 0.15%; in assay [23] it was -12.7%; in assay [24] it was 28.7%. The % mAb binding relative to wild-type was determined as 56% in [25]; 3.9% in assay [26]; 100% in [27]; 194% in assay [28]; 64.4% in assay [29]; 57.9% in assay [30]. For the same substance, the % mAb binding relative to wild-type in [31] was found to be 47.4%; in assay [32], 101%; in [33], 23.1%; in assay [34], 81.8%; in assay [35], 1.6%; in assay [36] it was 194%. Also, the % mAb binding relative to wild-type in assay [37] came to 170%; in [38], 68.7%; in assay [39] it was 24.5%; in assay [40], 62.7%; in assay [41] it was 31.7%.

As to palivizumab (antibody), in assay [42], the Kd is 1.1 nM. In addition, the RSV neutralization IC50 (Palivizumab) in assay [43] was found to be 0.1 µg/mL.

Turning to palivizumab Fab, in assay [42], the Kd turned out to be 1.5 nM, the dissociation rate constant (koff) stood at 0.0011 s⁻¹ and the kon worked out at 720000 M⁻¹ s⁻¹. The same substance came in with an RSV neutralization IC50 (Palivizumab Fab) in [43] of 3.2 µg/mL.

The term Kd denotes the equilibrium constant for the complex coming apart. As a reminder, the koff is the rate constant with which the complex falls apart. For orientation: kon means the rate constant with which the complex forms.
